Measured values reported in the supplement of paper PMC9112550, “Optimization of the antimicrobial peptide Bac7 by deep mutational scanning” (BMC Biology, 2022).

system: Escherichia coli TOP10; test: shrunken log2 fold change of peptide-encoding DNA abundance (4.5 h post-induction vs induction); higher = less antimicrobial activity (less host growth inhibition); settings: time post-induction: 4.5 h; library: site-saturation at positions 5, 18, 19, 20
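Further: peptides expressed intracellularly from a pBAD plasmid library in pooled LB shake-flask culture, induced with 0.3% L-arabinose, DNA abundance read by NGS, three biological replicates, DESeq2 with apeglm shrinkage.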

Sequence | shrunken log2 fold change
RRIRKRPPRLPRPRPRPTDTPRP | 0.261
RRIRRRPPRLPRPRPRPEVMPRP | 0.212
RRIRFRPPRLPRPRPRPDLKPRP | 0.166
RRIRIRPPRLPRPRPRPYCWPRP | -0.185
RRIRIRPPRLPRPRPRPVRRPRP | 0.377
RRIRLRPPRLPRPRPRPPGVPRP | 0.426
RRIRNRPPRLPRPRPRPEPLPRP | 0.00741
RRIRKRPPRLPRPRPRPTTEPRP | 0.579
RRIRNRPPRLPRPRPRPVRVPRP | 0.0666
RRIRMRPPRLPRPRPRPACFPRP | 0.421
RRIRWRPPRLPRPRPRPVVKPRP | -0.322
RRIRPRPPRLPRPRPRPGHMPRP | -0.238
RRIRWRPPRLPRPRPRPGGRPRP | 0.418
RRIRPRPPRLPRPRPRPYVVPRP | -0.307
RRIRGRPPRLPRPRPRPSWNPRP | 0.285
RRIRHRPPRLPRPRPRPVRQPRP | 0.0261
RRIRYRPPRLPRPRPRPKWTPRP | -0.298
RRIRMRPPRLPRPRPRPLGFPRP | 0.772
RRIRTRPPRLPRPRPRPHMCPRP | -0.195
RRIRARPPRLPRPRPRPAQFPRP | 0.509
RRIRIRPPRLPRPRPRPAKHPRP | -0.476
RRIRKRPPRLPRPRPRPDSKPRP | -0.0709
RRIRCRPPRLPRPRPRPQETPRP | 0.00739
RRIRERPPRLPRPRPRPFVDPRP | -0.0208
RRIRQRPPRLPRPRPRPPWSPRP | 0.223

Sequence | shrunken log2 fold change
RRIRYRPPRLPRPRPRPWYTPRP | -1.81
RRIRMRPPRLPRPRPRPAIYPRP | 0.0389
RRIRPRPPRLPRPRPRPNMGPRP | -0.202
RRIRSRPPRLPRPRPRPSEHPRP | -0.579
RRIRGRPPRLPRPRPRPMIYPRP | 0.0378
RRIRGRPPRLPRPRPRPMLRPRP | 0.117
RRIRKRPPRLPRPRPRPVVDPRP | -0.0213
RRIRGRPPRLPRPRPRPVADPRP | 1.34
RRIRVRPPRLPRPRPRPEARPRP | 0.389
RRIRWRPPRLPRPRPRPDHTPRP | -0.000848
RRIRARPPRLPRPRPRPTMRPRP | 0.976
RRIRGRPPRLPRPRPRPNHDPRP | -0.185
RRIRLRPPRLPRPRPRPQPTPRP | 0.0811
RRIRSRPPRLPRPRPRPKKLPRP | 0.0709
RRIRARPPRLPRPRPRPSWSPRP | 0.0204
RRIRRRPPRLPRPRPRPNADPRP | 0.579
RRIRSRPPRLPRPRPRPTQVPRP | 0.839
RRIRSRPPRLPRPRPRPKHTPRP | -0.206
RRIRYRPPRLPRPRPRPDMSPRP | -0.0894
RRIRLRPPRLPRPRPRPFKCPRP | 2.83
RRIRRRPPRLPRPRPRPQHLPRP | -0.289
RRIRTRPPRLPRPRPRPLGVPRP | -0.194
RRIRNRPPRLPRPRPRPITTPRP | -0.225
RRIRWRPPRLPRPRPRPNDHPRP | -0.0566
RRIRVRPPRLPRPRPRPPNFPRP | 0.0102

Sequence | shrunken log2 fold change
RRIRGRPPRLPRPRPRPQPDPRP | 0.821
RRIRCRPPRLPRPRPRPGKQPRP | -0.106
RRIRCRPPRLPRPRPRPFHAPRP | -0.44
RRIRHRPPRLPRPRPRPKKIPRP | -0.129
RRIRDRPPRLPRPRPRPAVAPRP | 0.309
RRIRKRPPRLPRPRPRPYQWPRP | -0.143
RRIRVRPPRLPRPRPRPIQHPRP | -0.415
RRIRERPPRLPRPRPRPTHKPRP | 0.0682
RRIRNRPPRLPRPRPRPSELPRP | -0.135
RRIRHRPPRLPRPRPRPGCEPRP | 0.103
RRIRNRPPRLPRPRPRPPWFPRP | 0.349
RRIRRRPPRLPRPRPRPNHLPRP | -0.394
RRIRLRPPRLPRPRPRPWQQPRP | 0.00911
RRIRTRPPRLPRPRPRPWPKPRP | 0.218
RRIRMRPPRLPRPRPRPKPSPRP | 1.4
RRIRTRPPRLPRPRPRPWWRPRP | -0.00919
RRIRGRPPRLPRPRPRPKFGPRP | 0.241
RRIRSRPPRLPRPRPRPSRHPRP | 0.0757
RRIRRRPPRLPRPRPRPTTVPRP | 0.792
RRIRFRPPRLPRPRPRPCACPRP | -0.0607
RRIRKRPPRLPRPRPRPHLKPRP | 0.0906
RRIRQRPPRLPRPRPRPNYGPRP | -0.299
RRIRWRPPRLPRPRPRPLHGPRP | 0.131
RRIRARPPRLPRPRPRPEYDPRP | 0.695
RRIRSRPPRLPRPRPRPYGAPRP | -0.318

Sequence | shrunken log2 fold change
RRIRWRPPRLPRPRPRPQYPPRP | -0.139
RRIRVRPPRLPRPRPRPFNYPRP | -0.975
RRIRYRPPRLPRPRPRPRHNPRP | -0.477
RRIRIRPPRLPRPRPRPKHVPRP | -0.406
RRIRFRPPRLPRPRPRPRCDPRP | 0.0576
RRIRQRPPRLPRPRPRPEMKPRP | -0.0789
RRIRQRPPRLPRPRPRPPPFPRP | 0.259
RRIRLRPPRLPRPRPRPVCAPRP | 0.174
RRIRLRPPRLPRPRPRPYTVPRP | -0.121
RRIRKRPPRLPRPRPRPTIYPRP | -0.0381
RRIRIRPPRLPRPRPRPANYPRP | -0.33
RRIRIRPPRLPRPRPRPLRWPRP | 1.02
RRIRVRPPRLPRPRPRPHCCPRP | -0.147
RRIRMRPPRLPRPRPRPGIPPRP | 0.726
RRIRPRPPRLPRPRPRPQQQPRP | -0.17
RRIRVRPPRLPRPRPRPSGMPRP | 0.489
RRIRWRPPRLPRPRPRPPNQPRP | 0.363
RRIRARPPRLPRPRPRPPSVPRP | 0.479
RRIRYRPPRLPRPRPRPQVFPRP | 0.0195
RRIRQRPPRLPRPRPRPDATPRP | 0.495
RRIRPRPPRLPRPRPRPVTHPRP | -0.227
RRIRTRPPRLPRPRPRPCYWPRP | 0.0189
RRIRRRPPRLPRPRPRPRVIPRP | 0.0591
RRIRERPPRLPRPRPRPGYCPRP | -0.432
RRIRNRPPRLPRPRPRPRQWPRP | 0.299

Sequence | shrunken log2 fold change
RRIRGRPPRLPRPRPRPKGQPRP | 0.184
RRIRERPPRLPRPRPRPVFIPRP | -0.281
RRIRSRPPRLPRPRPRPCGGPRP | 0.012
RRIRYRPPRLPRPRPRPCCFPRP | -0.709
RRIRFRPPRLPRPRPRPDPPPRP | 0.37
RRIRMRPPRLPRPRPRPHSLPRP | -0.0589
RRIRPRPPRLPRPRPRPTLKPRP | 0.114
RRIRFRPPRLPRPRPRPQVEPRP | -0.0419
RRIRKRPPRLPRPRPRPQAEPRP | 0.0754
RRIRKRPPRLPRPRPRPWYSPRP | -0.234
RRIRERPPRLPRPRPRPNQPPRP | 0.0495
RRIRPRPPRLPRPRPRPCQMPRP | 0.0359
RRIRDRPPRLPRPRPRPCKKPRP | -0.00395
RRIRLRPPRLPRPRPRPDVTPRP | -0.0876
RRIRLRPPRLPRPRPRPCWMPRP | -0.168
RRIRSRPPRLPRPRPRPTRVPRP | 0.872
RRIRRRPPRLPRPRPRPVTMPRP | 0.0683
RRIRQRPPRLPRPRPRPNHFPRP | 0.189
RRIRFRPPRLPRPRPRPMMPPRP | -0.0286
RRIRVRPPRLPRPRPRPQTDPRP | -0.27
RRIRLRPPRLPRPRPRPVYGPRP | -0.183
RRIRWRPPRLPRPRPRPRCLPRP | 0.164
RRIRGRPPRLPRPRPRPLIWPRP | 0.602
RRIRRRPPRLPRPRPRPTFFPRP | 0.722
RRIRQRPPRLPRPRPRPEASPRP | -0.0802
